Consider three molecules from patent CN117412992A (NOVIMMUNE SA, dated 2024).

Assay [1] deals with T1, human PD-L1 on cells (hPD-L1-transfected CHO cells; IFNg-induced HT-1080 tumour cells) (human, UniProt Q9NZQ7 19-290).
T1 construct: whole, on cells
As to the kind of experiment: cell-based competition: inhibition of human PD-1-moFc binding to IFNg-induced PD-L1+ CD47+ HT-1080 cells, CellInsight CX5.

Assay [2] concerns the target T2, recombinant human PD-L1 soluble protein, biotinylated (ACROBiosystems) (human, UniProt Q9NZQ7 19-238, biotinylated).
T2 construct: Bought soluble protein; also called 重组人PD-L1; 人PD-L1
Put plainly: BLI (Table 7) and ELISA (Fig. 1A) on recombinant PD-L1. Background: An ELISA detects its analyte on a solid surface through an enzyme-linked reagent.

For assay [3], the target named is T3, human CD47 on cells (Raji, Nalm-6, HT-1080 tumour cells; human red blood cells) (human, UniProt Q08722 19-323).
T3 construct: whole, on cells
Put plainly: flow cytometry on human red blood cells (CD47+, PD-L1-). In general terms: In flow cytometry, cells or beads pass a laser one at a time.

Assay [4] addresses T1, human PD-L1 on cells …. Put plainly: flow cytometry on IFNg-preactivated PD-L1+ CD47+ HT-1080 cells, co-engagement of both targets.

B1: S100 anti-PD-L1 mAb (antibody, human IgG1, lambda, V domains shown)
VH: not shown
VL: QSVLTQPPSASGTPGQRVTISCSGSSSNIENKPVNWYQQLPGTAPKLLIYHDTTRPSGVPDRFSGSKSGTSASLAISGLQSEDEADYYCAAWDFATWPATEVFGGGTKLTVLG
notes: bivalent monospecific anti-PD-L1 IgG; also called S100抗PD-L1 mAb
Molecule B1 displayed a half-maximal inhibitory concentration (IC50) in assay [1] of 0.84 pM.

B2: S79 anti-PD-L1 mAb (antibody, human IgG1, lambda, V domains shown)
VH: not shown
VL: QSALTQPASVSGSPGQSITISCTGTSSDVFRPPLVSWYQQHPGKAPKLMIYFASLRPSGVSNRFSGSKSGNTASLTISGLQAEDEADYYCSSWDHTGDGHVFGGGTKLTVLG
notes: also called S79_Sc3_1G7_VLCL2 aPDL1 IGLV2-23; S79抗PD-L1 mAb
The molecule B2 showed an IC50 in assay [1] of 2.52 pM.

B3: K2xS23 CD47xPD-L1 bispecific antibody (bispecific antibody, human IgG1, kappa, lambda)
heavy: not shown
light 1: not shown
light 2: QSALTQPASVSGSPGQSITISCTGTSSDVAKIPLVSWYQQHPGKAPKLMIYFASLRPSGVSNRFSGSKSGNTASLTISGLQAEDEADYYCSSWDNAGDGHVFGGGTKLTVLGQPKAAPSVTLFPPSSEELQANKATLVCLISDFYPGAVTVAWKADSSPVKAGVETTTPSKQSNNKYAASSYLSLTPEQWKSHRSYSCQVTHEGSTVEKTVAPTECS
notes: kappa-lambda body with a common heavy chain; also called K2xS23 bsAb
Take B3: the binding result in assay [2], in assay [3] and in assay [4] was “binds” in each case.

By IC50 is commonly meant the point on the concentration scale where inhibition reaches its midpoint. Lower therefore signals inhibition by little substance.
